Results: patent US20220213181A1 (Novartis, published 2022)

Experiments:
Assay in all cases: linear peptide array on glass (JPT)
P23 = biological target: T1, P23 (human)
T1 construct: linear 15-mer from the N-terminal coiled coil domain of human ANGPTL4
T1 peptide: APESRVDPEVLHSLQ
Protocol: (§1) The ability of selected antibodies of invention, namely NEG276 and NEG318, to bind to linear 15-amino-acid peptides derived from the N-terminal coiled coil domain of human ANGPTL4 was tested. The peptides were immobilized on a glass surface, and the ability of NEG276 and NEG318 to bind to the immobilized peptides was evaluated using experimental methods optimized for linear peptide epitope mapping at JPT Peptide Technologies (Berlin, Germany).

P10 = biological target: T2, P10 (human)
T2 construct: linear 15-mer from the N-terminal coiled coil domain of human ANGPTL4
T2 peptide: QGLREHAERTRSQLS
Protocol: as §1

P18 = biological target: T3, P18 (human)
T3 construct: linear 15-mer from the N-terminal coiled coil domain of human ANGPTL4; printed with Ser where ANGPTL4 has Cys
T3 peptide: GSASQGTEGSTDLPL
Protocol: as §1

P30 = biological target: T4, P30 (human)
T4 construct: linear 15-mer from the N-terminal coiled coil domain of human ANGPTL4
T4 peptide: NSRIQQLFHKVAQQQ
Protocol: as §1

P38 = biological target: T5, P38 (human)
T5 construct: linear 15-mer from the N-terminal coiled coil domain of human ANGPTL4
T5 peptide: IQHLQSQFGLLDHKH
Protocol: as §1

P35 = biological target: T6, P35 (human)
T6 construct: linear 15-mer from the N-terminal coiled coil domain of human ANGPTL4
T6 peptide: RHLEKQHLRIQHLQS
Protocol: as §1

P12 = biological target: T7, P12 (human)
T7 construct: linear 15-mer from the N-terminal coiled coil domain of human ANGPTL4
T7 peptide: AERTRSQLSALERRL
Protocol: as §1

P1 = biological target: T8, P1 (human)
T8 construct: linear 15-mer from the N-terminal coiled coil domain of human ANGPTL4
T8 peptide: GPVQSKSPRFASWDE
Protocol: as §1

P32 = biological target: T9, P32 (human)
T9 construct: linear 15-mer from the N-terminal coiled coil domain of human ANGPTL4
T9 peptide: LFHKVAQQQRHLEKQ
Protocol: as §1

P28 = biological target: T10, P28 (human)
T10 construct: linear 15-mer from the N-terminal coiled coil domain of human ANGPTL4
T10 peptide: TQLKAQNSRIQQLFH
Protocol: as §1

P34 = biological target: T11, P34 (human)
T11 construct: linear 15-mer from the N-terminal coiled coil domain of human ANGPTL4
T11 peptide: QQQRHLEKQHLRIQH
Protocol: as §1

P26 = biological target: T12, P26 (human)
T12 construct: linear 15-mer from the N-terminal coiled coil domain of human ANGPTL4
T12 peptide: VLHSLQTQLKAQNSR
Protocol: as §1

P31 = biological target: T13, P31 (human)
T13 construct: linear 15-mer from the N-terminal coiled coil domain of human ANGPTL4
T13 peptide: IQQLFHKVAQQQRHL
Protocol: as §1

P14 = biological target: T14, P14 (human)
T14 construct: linear 15-mer from the N-terminal coiled coil domain of human ANGPTL4; printed with Ser where ANGPTL4 has Cys
T14 peptide: QLSALERRLSASGSA
Protocol: as §1

P9 = biological target: T15, P9 (human)
T15 construct: linear 15-mer from the N-terminal coiled coil domain of human ANGPTL4
T15 peptide: QLGQGLREHAERTRS
Protocol: as §1

P15 = biological target: T16, P15 (human)
T16 construct: linear 15-mer from the N-terminal coiled coil domain of human ANGPTL4; printed with Ser where ANGPTL4 has Cys
T16 peptide: ALERRLSASGSASQG
Protocol: as §1

P19 = biological target: T17, P19 (human)
T17 construct: linear 15-mer from the N-terminal coiled coil domain of human ANGPTL4; printed with Ser where ANGPTL4 has Cys
T17 peptide: SQGTEGSTDLPLAPE
Protocol: as §1

P43 = biological target: T18, P43 (human)
T18 construct: linear 15-mer from the N-terminal coiled coil domain of human ANGPTL4
T18 peptide: KHLDHEVAKPARRKR
Protocol: as §1

P8 = biological target: T19, P8 (human)
T19 construct: linear 15-mer from the N-terminal coiled coil domain of human ANGPTL4
T19 peptide: GLLQLGQGLREHAER
Protocol: as §1

P20 = biological target: T20, P20 (human)
T20 construct: linear 15-mer from the N-terminal coiled coil domain of human ANGPTL4
T20 peptide: TEGSTDLPLAPESRV
Protocol: as §1

P5 = biological target: T21, P5 (human)
T21 construct: linear 15-mer from the N-terminal coiled coil domain of human ANGPTL4
T21 peptide: WDEMNVLAHGLLQLG
Protocol: as §1

P27 = biological target: T22, P27 (human)
T22 construct: linear 15-mer from the N-terminal coiled coil domain of human ANGPTL4
T22 peptide: SLQTQLKAQNSRIQQ
Protocol: as §1

P37 = biological target: T23, P37 (human)
T23 construct: linear 15-mer from the N-terminal coiled coil domain of human ANGPTL4
T23 peptide: HLRIQHLQSQFGLLD
Protocol: as §1

P42 = biological target: T24, P42 (human)
T24 construct: linear 15-mer from the N-terminal coiled coil domain of human ANGPTL4
T24 peptide: HKHLDHEVAKPARRK
Protocol: as §1

P3 = biological target: T25, P3 (human)
T25 construct: linear 15-mer from the N-terminal coiled coil domain of human ANGPTL4
T25 peptide: SPRFASWDEMNVLAH
Protocol: as §1

P40 = biological target: T26, P40 (human)
T26 construct: linear 15-mer from the N-terminal coiled coil domain of human ANGPTL4
T26 peptide: QFGLLDHKHLDHEVA
Protocol: as §1

P6 = biological target: T27, P6 (human)
T27 construct: linear 15-mer from the N-terminal coiled coil domain of human ANGPTL4
T27 peptide: MNVLAHGLLQLGQGL
Protocol: as §1

P36 = biological target: T28, P36 (human)
T28 construct: linear 15-mer from the N-terminal coiled coil domain of human ANGPTL4
T28 peptide: EKQHLRIQHLQSQFG
Protocol: as §1

P24 = biological target: T29, P24 (human)
T29 construct: linear 15-mer from the N-terminal coiled coil domain of human ANGPTL4
T29 peptide: SRVDPEVLHSLQTQL
Protocol: as §1

P22 = biological target: T30, P22 (human)
T30 construct: linear 15-mer from the N-terminal coiled coil domain of human ANGPTL4
T30 peptide: LPLAPESRVDPEVLH
Protocol: as §1

P2 = biological target: T31, P2 (human)
T31 construct: linear 15-mer from the N-terminal coiled coil domain of human ANGPTL4
T31 peptide: QSKSPRFASWDEMNV
Protocol: as §1

P11 = biological target: T32, P11 (human)
T32 construct: linear 15-mer from the N-terminal coiled coil domain of human ANGPTL4
T32 peptide: REHAERTRSQLSALE
Protocol: as §1

P33 = biological target: T33, P33 (human)
T33 construct: linear 15-mer from the N-terminal coiled coil domain of human ANGPTL4
T33 peptide: KVAQQQRHLEKQHLR
Protocol: as §1

P21 = biological target: T34, P21 (human)
T34 construct: linear 15-mer from the N-terminal coiled coil domain of human ANGPTL4
T34 peptide: STDLPLAPESRVDPE
Protocol: as §1

P41 = biological target: T35, P41 (human)
T35 construct: linear 15-mer from the N-terminal coiled coil domain of human ANGPTL4
T35 peptide: LLDHKHLDHEVAKPA
Protocol: as §1

Measured: binding result

B1: NEG276 (antibody, human IgG1, kappa)
heavy: not shown
light: EIVMTQSPATLSVSPGERATLSCKASQDIGSNLNWLQQKPGQAPRRLIYAVSNRGPGIPARFSGSRSGSEYTLTISSLQSEDFAVYYCLQYASSPWTFGQGTKVEIKRTVAAPSVFIFPPSDEQLKSGTASVVCLLNNFYPREAKVQWKVDNALQSGNSQESVTEQDSKDSTYSLSSTLTLSKADYEKHKVYACEVTHQGLSSPVTKSFNRGEC
notes: humanized, hIgG1/kappa, parental antibody 19C16
no binding: all assays above

B2: NEG318 (antibody, human IgG1, kappa, V domains shown)
VH: QVQLVQSGAEVKKPGASVKVSCKASGYTFTSFWITWVRQAPGQGLEWMGDIYPGGATTNYNEKLQGRVTLTVDTSTSTAYMELRSLRSDDTAVYYCARSPPQVGPFDYWGQGTLVTVSS
VL: DIQMTQSPSSLSASVGDRVTITCQASDYIYHWLAWYQQKPGKAPKLLISGASSLETGVPSRFSGSGSGKDYTFTISSLQPEDIATYYCQQYWSIPWTFGQGTKLEIKR
notes: humanized, hIgG1/kappa, parental antibody 14P18
no binding: all assays above
